US20140314793A1 (BIOINVENT INTERNATIONAL, published 2014)

Columns and labels:
[1] = biological target: T1, intercellular cell adhesion molecule-1 (ICAM-1) on the surface of human cells (human, UniProt P05362 28-532); assay: flow cytometry on ARH-77 cells, % of maximal cell ICAM-1 binding
T1 construct: whole, on cells; Endogenous antigen; also called CD54

recombinant ICAM-1 = biological target: T2, recombinant ICAM-1 (UniProt P05362 28-480); assay: ELISA on recombinant ICAM-1, luminescence
T2 construct: also called recombinant ICAM-1 protein
T2 sequence (P05362 28-480 limits assumed): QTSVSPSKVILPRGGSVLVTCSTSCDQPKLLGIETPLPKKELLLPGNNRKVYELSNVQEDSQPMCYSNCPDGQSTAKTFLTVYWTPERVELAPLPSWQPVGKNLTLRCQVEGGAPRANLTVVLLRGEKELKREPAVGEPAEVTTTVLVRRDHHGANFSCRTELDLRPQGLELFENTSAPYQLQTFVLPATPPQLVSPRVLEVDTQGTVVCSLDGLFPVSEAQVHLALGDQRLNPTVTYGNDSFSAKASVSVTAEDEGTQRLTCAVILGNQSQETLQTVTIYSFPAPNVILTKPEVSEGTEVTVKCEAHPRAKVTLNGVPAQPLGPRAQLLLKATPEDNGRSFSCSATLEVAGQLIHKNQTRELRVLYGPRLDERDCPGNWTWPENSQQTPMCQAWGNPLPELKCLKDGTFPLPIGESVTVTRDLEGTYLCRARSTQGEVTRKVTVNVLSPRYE

T1 sequence (P05362 28-532): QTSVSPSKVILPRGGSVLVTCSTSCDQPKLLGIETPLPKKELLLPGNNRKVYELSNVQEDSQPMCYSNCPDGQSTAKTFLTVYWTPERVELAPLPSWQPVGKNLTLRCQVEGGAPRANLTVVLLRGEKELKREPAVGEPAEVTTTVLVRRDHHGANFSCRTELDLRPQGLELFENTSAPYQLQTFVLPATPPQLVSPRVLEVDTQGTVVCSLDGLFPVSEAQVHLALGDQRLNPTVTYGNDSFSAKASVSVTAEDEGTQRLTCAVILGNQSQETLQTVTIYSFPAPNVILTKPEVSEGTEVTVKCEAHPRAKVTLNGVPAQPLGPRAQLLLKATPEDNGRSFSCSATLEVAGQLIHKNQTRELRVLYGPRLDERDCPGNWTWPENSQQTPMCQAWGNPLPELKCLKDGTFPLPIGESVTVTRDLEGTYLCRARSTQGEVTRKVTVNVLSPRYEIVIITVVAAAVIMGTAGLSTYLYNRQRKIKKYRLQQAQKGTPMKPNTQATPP

Binder | EC50 (read off the curve) [1] [µg/mL] | EC50 (read off the curve) (recombinant ICAM-1) [nM]
BI-505 IgG4 (antibody, V domains shown) VH: EVQLLESGGGLVQPGGSLRLSCAASGFTFSNAWMSWVRQAPGKGLEWVAFIWYDGSNKYYADSVKGRFTISRDNSKNTLYLQMNSLRAEDTAVYYCARYSGWYFDYWGQGTLVTVSS VL: QSVLTQPPSASGTPGQRVTISCTGSSSNIGAGYDVHWYQQLPGTAPKLLIYDNNNRPSGVPDRFSGSKSGTSASLAISGLRSEDEADYYCQSYDSSLSAWLFGGGTKLTVLG | ~0.05 | ~0.2
BI-505 IgG1 N297Q (antibody, V domains shown, also called Fc-mut; BI-505N297Q) VH: EVQLLESGGGLVQPGGSLRLSCAASGFTFSNAWMSWVRQAPGKGLEWVAFIWYDGSNKYYADSVKGRFTISRDNSKNTLYLQMNSLRAEDTAVYYCARYSGWYFDYWGQGTLVTVSS VL: QSVLTQPPSASGTPGQRVTISCTGSSSNIGAGYDVHWYQQLPGTAPKLLIYDNNNRPSGVPDRFSGSKSGTSASLAISGLRSEDEADYYCQSYDSSLSAWLFGGGTKLTVLG | ~0.05 | ~0.2
